Experimental data from the domain aggregation screens of Martell et al. (2025).

Assay: soluble fraction after stress (log2 fold change); higher = more stays soluble; pooled small domains, quantitative proteomics
Details: stress: 75 degC
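Note: 20 min heating vs room temperature control held 20 min.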

| Sequence | soluble fraction (log2) |
| --- | --- |
| HMNSLKNKNNLIALVGASNDKNKYGNKILLDLVSKGHNVVPINPKEDTVAGLKSYNNVSELSEKPSI | -0.523 |
| HMNSLPFSNFMNEVEAGRVVEVKIQGNNISGVLANGKTFSTYSPNYPELVEKLSSNGVSIVATPQ | 0.28 |
| HMNSRTLAYSDFIRKVDKGEVSAVVIDGEQVQVQTKDGQTFVTIQPQSEQMNDKLVEQLIAKDISVKAERQ | -0.0843 |
| HMNSSLFLARQVHALRKKAGLTLQQLSRKSDVSVSTLSKIEKGQLSPTYEKIVSLARGLDVPIAALFHE | -2.45 |
| HMNSSTVDLAKEFLIDLLSSVEKMPASEVQEEAKNAGYSVASIRRAKDNLNIKPFKDGSAWYWKLPSIFK | -0.329 |
| HMNSSTYIVTFKVDGEEDIVETYQWGDRIIVPEVEAKDDYVFIGWDAQIPEFMPERNLEFTAI | -0.895 |
| HMNSTNYQVIITANGGLNIRAGASTAYARIGGYAKGTVVTILAESNGFGKTDKGWISLNYTSKDLD | -3.11 |
| HMNTAALSLQRRNEIKKWLLEEKTLTVAALSNRFNVTYETIRRDLEILEKEGFLKKVYGGAALNERV | -2.83 |
| HMNTAIDGLIEKVGMFAMEKKAISVDQVKENFSINGEQAESVIKQLETIGVLGKKNEDGTHTVM | 0.159 |
| HMNTDALIGKTGYVTEIVGERHGRIQFSGGEWSARTEGVSIPVGAEVRVDRIDGATAVVSAV | 0.114 |
| HMNTDVEKQKVFTALFDDYFRRNSMTSLEKQLFLTALKTNFQNAQKTVAKDHPYYATYSLIISAIENYR | -0.525 |
| HMNTEEKILEKEFLMLYSELGLQPKNIYELMENTGLKYEKLVEMLLQLQLKGLVEQPSYNYYSRL | -1.28 |
| HMNTEEVGSYLKKLRLEHSFTQKELAGKLYITHQAVSNWEKGKALPDIGILSQLGDIYGISIDNLLLK | -2.04 |
| HMNTEKRVFAGVENTRLDHFLVEQFPEFSRTFIQQMIKSANVIVNGNIEKASYKLREGDTIMTRPM | -0.489 |
| HMNTELFTKNLFNKLEVLLGEKNWKSKTAQLLNISSDAFYKKIRNESQLNLHELLLIKDTFKISIDALLDE | -1.35 |
| HMNTETAVTKAIDQIQVMMDLRNRSVSFTRDQETGTDIIKVIDDNTGDTIRQMPSEELLTFMKNLTQ | 0.165 |
| HMNTFKNIFIQEGDLFNLKKNDNQIIFAKEGILINENKKIFRLLNGKIISTNNNRLIGFEFDKIDYNLSN | 0.561 |
| HMNTGIPHQEVIKKLYSFAEGGDWKGLKEELNRIKEYTLFYNSVKELADSFEINRLIEKLKTYIF | -0.127 |
| HMNTGLSEREHEIAQLVLQGRTYAEIGAELFISPRTAEHHIGQIRRRLAATSRSDLLAKLRVAMNTTEGAG | -2.36 |
| HMNTISYTELIKQIDEGNVEKVEMTVGSTSVKVKLQGQEEEKKAIVPNTQAFVELIQEKTLEGNQIDLKQN | 0.0122 |
| HMNTLSPVRILAILDGRSSMAEWQLAEELGVSIDNLSEILNKMSTDGQIRLVPSEDGRMVVP | 0.597 |
| HMNTPALRQRTQDVPALLIHFAKYFATKGQTPISFAPDFLEALKDYPWPGNVRELRNLVESMVV | -0.133 |
| HMNTPHLTPREREVLKGIVDGLINKEIAARMGVSVATVITHRNNLTEKLGTRSVSALTIFAVMHGIVR | -2.55 |
| HMNTPNYDVLYRGLADADAGQIMEALQKSNIPFKVDSHSGVLLVPADQVHEARLKLASQGLPRG | -0.119 |

| Sequence | soluble fraction (log2) |
| --- | --- |
| HMNTPTLLLYGGKDHSVPEAGIRHLRAHLSANDRGEYRFYPNAPHLLLQSRQWQQVSQDISQWLAMT | 0.037 |
| HMNTRWDDAAQTWLRKVIEQQPVLVQISAAKRLRDQAEQRAREAGEEVVTEQHVKRAGLELGFGEP | 0.0588 |
| HMNTSITVPSLKGLSQEAATLKMERLGLHVEVSDTGFVRSLAFGTVLQQSIAPGEKVKPGRLVYITINSD | -2.2 |
| HMNTVAGAISDLSFKVRGSEDIEKLNRLKALSIQAKLDVQGQEEAERLISELEAKYGSLGMTVDKVSGKIA | 0.0323 |
| HMNTYEIIGGDNRARGPVTGEELSQWIREGRASGHTMARVSDGEHWQPLGSFPEFVGPLQGLPW | 0.0698 |
| HMNTYVLPDALKSQLSVEDTGMLTKQLQALPETLAEGVLDSLSQMLSKNTLQNPVGWMLAVMKRAREGNFN | -0.305 |
| HMNVAVSEADAKAAALERVSGATEADIRMELELDDGYYVYEGDIIYQQKEYEFEIDAQTGKFLKWSEER | -0.121 |
| HMNVDLLEARIPIQSHGMRLDQVVAELFPDYSRNRLAAWIKEGRLTVDGKTMKPRDRALASAHVVLEVV | -0.3 |
| HMNVGKYILTLAAKEGYSQSDVARRTGISRQMLSYIIAGERKLTLPQALKIESLLSLKTGTLILMQDED | -3.35 |
| HMNVNEIREMYPEGTQIVLTEMRGENQMPYGLKGTVKFVDDAGQIHMKWENGSSLALNINEDTFEKVE | 0.91 |
| HMNVPATAEAYEALLADAESVGKSLWGHEAKRFAAEQALLSAGLREVIQVDPDKARELALRLRGLLDEYRG | 0.19 |
| HMNVQGFVFDLAEPLDKVPSIEGFPLKLEDPLTLVAAVNKDRSINALFAELSKLNIKIKSMRNE | -0.0601 |
| HMNVVSIEHIRTHLQNHLSLIGRSIEESFNEAKVIAFVASLFLTHRGYASVSQDMGTNGEIYLQDLW | -0.465 |
| HMNVWGLSERELEATRLLIEGFSSKEASARMGISPSTVRSLWGRARAKMGVDSIEDARELVA | -0.415 |
| HMNYAVTAARRESILNAALEIFGKSGYNGSSVKQVALAVGMTEAGVLHHFGTKSNLLIEVLRV | 0.396 |
| HMNYLDVNIPVTSAVWMGKQLPEMGTLIYLTPDKDVEGMLFIKQATKDKPDGEYIEAKVLGYKEGRVLFDF | -0.964 |
| HMPAEEVPLYKAVVVTTPPNRLRVRFSPAGDFKRWLQSGEEVDVYQELGDWRRIEPNGWSSAEWLQRVG | -0.465 |
| HMPAGWIPARIRLADYPQLRSLAWHVQGIDTLTPTEALDIYERNARHLDAQAMSAQEQDLLASLRLALS | -0.888 |
| HMPALPGNELLRNLMLEHGLKQVDLAEIGSQGVVSEILSGKRRINRRHADLLARRFSLPAELFSR | -0.217 |
| HMPANLTPDYFKAEQWYRSASTNEEKMLALEQMLAVMPKHKGTEHLQADLKRKLSQLKDASAQ | 0.19 |
| HMPAPAPDIPYHSRVSVRRADGFYEGTWTNTAPILDYTGRWMVNVSLGGKRVFVPVEEVVVH | -1.05 |
| HMPAPKPSGALSLKDEPLYAASDSKRRSGTVSGTYYRWDGENVNGRMRITNKQENIGKAGQVTGWITAH | 0.0409 |
| HMPASTSIPYSDFISRVESGDVQEAKIGESAITGTYKDGSQFKTVKPPTLDTNLMPTLIQNKVNVVGVEP | 0.176 |
| HMPAVGGVVKGAVVSVGRNEVRLDIGGLAIGIIRGPELDKHVDLRIGDEVEATVITLDNEFGELELSL | -1.37 |

| Sequence | soluble fraction (log2) |
| --- | --- |
| HMPAVTEQTKTNLRRAFWQLYEQKPIQKITVKQITDLAGYNRGTFYLYFKDVYDLLDDIENK | -1.09 |
| HMPAVTEQTRANLRTAFWSLYREKPTSKITVREITDRAGYNRATFYLYYRDVYDLFEQIEQEIL | -2.37 |
| HMPDAGQRRYLELVTALAGARSLTIDDLERRAIRFAEWGNGYSGRTARQFIDTLLQDRGVAEEL | -0.731 |
| HMPDAIPLETIIKNVNVLAGFLINSKTFTEDDIVMAYNNIMKIKGDHTDEKTLTNDVYTLLTEMN | -0.714 |
| HMPDIFDRGTAHITDAASGVAITFTRTFRIPPEVTMTHKGGTVVAIARLVGSITTGGFTAVLENT | 0.0362 |
| HMPDLQDTLYRLVPEDGSAIGNQSLREKFLSTAKDASDADFEAARDGLVEQGKLTKGKGRGGSVRRAEP | 0.551 |
| HMPDLSMLDEVLDEYRSQAGSLVTVLQKAQDLYGYLPLTILRHIAEEMNIKPAQVYGVATFYTQFRL | 0.0378 |
| HMPDRQKDIQNWQQIAETLLNMLDKYVAALETGKTGLAEAYKAIFAETLRRLDDRLDPEQFLP | -1.91 |
| HMPDTETLTPRQRQILDLVQELGFTTIETLAERFGVSAQTVRREIIRLQAGNFLQRFHGGAGLASGGIRSA | -1.24 |
| HMPDYAFEGVVIKLTHRDYDRWKAGFPDVDLPPYLTARDAWLSEQTPADRKNWFVSTATDLRNFQKREAI | -1.26 |
| HMPEDQISYTDLIKQINDGNVEKIKMTVGSTTIKVNLKEQEEPKTAIVPSTQAFIELVQEKVQDGNEITLI | 0.164 |
| HMPEITPAMIKALLSSLSEELAFASVTKVYAVLHNLFKAALLDDTIDRNPMDKVPRPRKSKDAAL | -0.576 |
| HMPELPEVETSRRGIEPHLVGATILHAVVRNGRLRWPVSEEIYRLSDQPVLSVQRRAKYLLLELQA | 0.0647 |
| HMPELSPEERAIIETLQKNNDLQVNIIAIKTGMDMGSLSAVLFDLEMKGLVKLLAGGMYHLI | -0.66 |
| HMPEPAPALPAKTRVSIRRETGGIIWHEGAWTISPPIRAYDGRWYVAVTTARKGIEFVPVSSVIRS | -2.18 |
| HMPEPMKLSDLPPELWQRVSDLFDEVIDLPETDRIPYIRNLWGSEPLVAKELMALLVAAANVD | -0.452 |
| HMPESFSEMQKRTGVGEFSDDALSAKYVDSIDADVMSLDEYIMKVRGISLDDLEAERALRAR | 0.0969 |
| HMPETAQLTDIQVSRSQAHTGIFSLHYYLTGTDSRGERVRLEISGDDYTRLSGSSSVTVEYYRHTGRIVRY | -1.16 |
| HMPETYVVFSKDGYANLRRGTTINSEILDVLDNGEYVTKLDEVGEWYRVEYADFDGGYIHKSQLKNI | -0.288 |
| HMPFDRTVQLAGARARQLQALPRYREVLRLLDEGMNPREIGQVLDPPVTRQRASALIQQAKRAQMLGLFED | -1.04 |
| HMPFNLKSLADRLSHVFPGLVKMRDDIGAIIVMDKIKVTEHGVTEGGGLAADRVRAVYNEFIKEY | -0.247 |
| HMPFSLHGVNEGSRNDNAARIAGYLISKNLNLDFVRIFLHNWNRDNKPPLPQQEIDSVVDNVKKTHDRKN | -2.09 |
